In paper PMC5573083, “Structural and Functional Analysis of the Escherichia coli Acid-Sensing Histidine Kinase EvgS” (Journal of Bacteriology, 2017):

Molecular target: the molecule itself
Experiment: AUC; purified protein dialysed against 50 mM Tris-HCl pH 7; OD280 of 1 (printed as 0.1 μM protein); 40,000 rpm, 20°C; 200 scans; analysed with Sedfit; monomer to dimer

B1: EvgS-Cyt (entire cytoplasmic region of the Escherichia coli histidine kinase EvgS, residues 553 to 1193) (domain or fragment, UniProt P30855 553-1193, looked up)
chain: WGFYLLRSVRRRKVIQGDLENQISFRKALSDSLPNPTYVVNWQGNVISHNSAFEHYFTADYYKNAMLPLENSDSPFKDVFSNAHEVTAETKENRTIYTQVFEIDNGIEKRCINHWHTLCNLPASDNAVYICGWQDITETRDLINALEVEKNKAIKATVAKSQFLATMSHEIRTPISSIMGFLELLSGSGLSKEQRVEAISLAYATGQSLLGLIGEILDVDKIESGNYQLQPQWVDIPTLVQNTCHSFGAIAASKSIALSCSSTFPEHYLVKIDPQAFKQVLSNLLSNALKFTTEGAVKITTSLGHIDDNHAVIKMTIMDSGSGLSQEEQQQLFKRYSQTSAGRQQTGSGLGLMICKELIKNMQGDLSLESHPGIGTTFTITIPVEISQQVATVEAKAEQPITLPEKLSILIADDHPTNRLLLKRQLNLLGYDVDEATDGVQALHKVSMQHYDLLITDVNMPNMDGFELTRKLREQNSSLPIWGLTANAQANEREKGLSCGMNLCLFKPLTLDVLKTHLSQLHQVAHIAPQYRHLDIEALKNNTANDLQLMQEILMTFQHETHKDLPAAFQALEAGDNRTFHQCIHRIHGAANILNLQKLINISHQLEITPVSDDSKPEILQLLNSVKEHIAELDQEIAVFC
notes: EvgS sensor histidine kinase, Escherichia coli, cytoplasmic domains comprising amino acid residues 553 to 1193; expected monomer mass printed as 72.3 kDa; Amplified from pBADEvgS and cloned NdeI-HindIII into a modified pET41c in which the GST tag is replaced by a C-terminal His8 tag; By the forward primer a start methionine precedes R553 (ATGCGCTCAGTTCGTCGTCGT); No cleavage of the tag is …
Q: How did the “stoichiometry N” value turn out when B1 was run?
A: 2
